Values joined by “and” are separate entries in the source; they are usually repeats but may differ in a detail not shown here. Identical values can stand only once.

The target of this experiment is T1, IpaD (wild type, Shigella flexneri) expressed on the surface of yeast cells (Shigella flexneri, gene synthesized …, UniProt P18013).
T1 construct: IpaD of Shigella flexneri; also called wild-type IpaD; needle tip protein of the Shigella type III secretion system
The experiment is described as follows: flow cytometry on cells; wild-type IpaD on the surface of yeast cells, increasing concentrations of the VHH, fluorescence by FACS; apparent KD, one site-specific binding model (PRISM). Conditions: one partner purified. (In general: In flow cytometry, cells or beads pass a laser one at a time.)

T1 sequence (P18013 whole entry): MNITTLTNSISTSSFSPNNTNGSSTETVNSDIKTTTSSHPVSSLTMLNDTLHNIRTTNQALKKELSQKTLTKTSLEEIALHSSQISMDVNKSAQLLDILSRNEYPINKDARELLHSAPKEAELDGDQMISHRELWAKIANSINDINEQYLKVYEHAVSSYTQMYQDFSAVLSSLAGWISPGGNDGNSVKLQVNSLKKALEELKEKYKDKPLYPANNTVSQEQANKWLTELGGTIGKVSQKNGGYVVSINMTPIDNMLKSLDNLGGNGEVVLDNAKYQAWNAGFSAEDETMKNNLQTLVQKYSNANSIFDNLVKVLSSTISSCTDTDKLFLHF

B1: VHH-20ipaD (VHH)
VHH: QVQLVESGGGLVQAGGSLRLSCAVSGLEMQSHAIGWFRQAPGKEREGVSCINDDGSTTRYADSVKGRFTISRDNAKNTVYLQMNSLKPEDTAVYFCAAKSVWFCSVIRSHEFNSWGQGTQVTVSS
notes: the VHH chain is in the complex IpaD/VHH-20ipaD, PDB 5VXM; Monomeric fractions of the gel filtration were pooled; source: E. coli BL21, purified (TEV cleavage, HisTrap flow-through, gel filtration)
Turning to B1, the Kd was 1.16 nM and 1.15 nM.

The record behind these values is paper PMC7990167, “An antibody targeting type III secretion system induces broad protection against Salmonella and Shigella infections” (PLoS Neglected Tropical Diseases, 2021).
